B1: 14-3-3ε protein (mouse, endogenous in MA-10 mouse Leydig tumor cells) (other, UniProt P62259 1-255, looked up)
chain: MDDREDLVYQAKLAEQAERYDEMVESMKKVAGMDVELTVEERNLLSVAYKNVIGARRASWRIISSIEQKEENKGGEDKLKMIREYRQMVETELKLICCDILDVLDKHLIPAANTGESKVFYYKMKGDYHRYLAEFATGNDRKEAAENSLVAYKAASDIAMTELPPTHPIRLGLALNFSVFYYEILNSPDRACRLAKAAFDDAIAELDTLSEESYKDSTLIMQLLRDNLTLWTSDMQGDGEEQNKEALQDVEDENQ
notes: whole, on cells; Endogenous intracellular protein, detected in fixed cells (Duolink) or cell lysates (co-IP); also called YWHAE gene product; mitochondrial import stimulating factor

Legend:
[1] = biological target: T1, VDAC1 protein (mouse, endogenous in MA-10 cells) (mouse, UniProt Q60932 14-296); test: Duolink in cell IP in MA-10 cells (figure legend)
T1 construct: Endogenous protein of the outer mitochondrial membrane in MA-10 cells; also called voltage-dependent anion-selective channel protein 1; mVDAC1
T1 sequence (Q60932 14-296): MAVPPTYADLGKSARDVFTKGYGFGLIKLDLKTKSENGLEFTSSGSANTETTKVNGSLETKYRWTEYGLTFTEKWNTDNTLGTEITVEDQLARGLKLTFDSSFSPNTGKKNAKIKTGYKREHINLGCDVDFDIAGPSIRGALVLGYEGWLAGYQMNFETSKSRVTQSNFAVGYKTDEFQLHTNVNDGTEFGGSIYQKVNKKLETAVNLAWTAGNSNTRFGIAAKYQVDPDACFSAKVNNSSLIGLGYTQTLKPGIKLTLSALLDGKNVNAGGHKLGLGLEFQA

[2] = biological target: T2, translocator protein (TSPO), mouse, endogenous in MA-10 cells (mouse, UniProt P50637 1-169); test: Duolink in cell IP in MA-10 cells, signal/cell ratio, with TVS167 and 8-Br-cAMP (120 min)
T2 construct: whole, on cells; Endogenous outer mitochondrial membrane protein
T2 sequence (P50637 whole entry): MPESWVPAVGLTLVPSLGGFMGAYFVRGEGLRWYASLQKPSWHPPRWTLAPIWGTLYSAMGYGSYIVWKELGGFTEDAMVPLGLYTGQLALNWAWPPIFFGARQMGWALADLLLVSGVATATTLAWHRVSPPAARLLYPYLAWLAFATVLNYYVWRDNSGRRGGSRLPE

[3] = biological target: T3, VDAC1 protein (human, endogenous in NCL-H295R adrenocortical cells) (human, UniProt P21796 2-283); test: Duolink assay in human adrenocortical cell line (figure legend)
T3 construct: Endogenous protein
T3 sequence (P21796 2-283 limits assumed, stated change not applied): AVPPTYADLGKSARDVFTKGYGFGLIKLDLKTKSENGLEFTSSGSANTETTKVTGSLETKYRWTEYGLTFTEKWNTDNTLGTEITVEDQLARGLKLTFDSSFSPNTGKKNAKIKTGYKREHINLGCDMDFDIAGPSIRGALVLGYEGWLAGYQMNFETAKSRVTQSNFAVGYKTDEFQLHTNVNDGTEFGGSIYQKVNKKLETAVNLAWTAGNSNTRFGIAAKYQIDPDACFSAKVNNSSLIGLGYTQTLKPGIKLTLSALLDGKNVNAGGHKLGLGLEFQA

[4] = biological target: T4, VDAC1 protein (rat, endogenous in testes sections of Sprague-Dawley rats) (rat, UniProt Q9Z2L0 1-283); test: Duolink assay on rat testes sections (figure legend)
T4 construct: Endogenous protein in tissue sections
T4 sequence (Q9Z2L0 whole entry): as the sequence (Q60932 14-296) above

[5] = biological target: B1; test: Duolink in cell IP in MA-10 cells, competition with endogenous VDAC1, 250 nM peptide

| Binder | binding result [5] | further results |
| --- | --- | --- |
| B1 | – | binding result [1]: binds; fold increase of interactions in the presence of TVS167 against untreated control [2]: 1.6 fold |
| 14-3-3ε protein (human, endogenous in NCL-H295R adrenocortical cells) (other, UniProt P62258 1-255, looked up, whole, on cells; Endogenous protein) MDDREDLVYQAKLAEQAERYDEMVESMKKVAGMDVELTVEERNLLSVAYKNVIGARRASWRIISSIEQKEENKGGEDKLKMIREYRQMVETELKLICCDILDVLDKHLIPAANTGESKVFYYKMKGDYHRYLAEFATGNDRKEAAENSLVAYKAASDIAMTELPPTHPIRLGLALNFSVFYYEILNSPDRACRLAKAAFDDAIAELDTLSEESYKDSTLIMQLLRDNLTLWTSDMQGDGEEQNKEALQDVEDENQ | – | binding result [3]: binds |
| 14-3-3ε protein (rat, endogenous in testes sections of Sprague-Dawley rats) (other, UniProt P62260 1-255, looked up, whole, on cells; Endogenous protein in tissue sections) MDDREDLVYQAKLAEQAERYDEMVESMKKVAGMDVELTVEERNLLSVAYKNVIGARRASWRIISSIEQKEENKGGEDKLKMIREYRQMVETELKLICCDILDVLDKHLIPAANTGESKVFYYKMKGDYHRYLAEFATGNDRKEAAENSLVAYKAASDIAMTELPPTHPIRLGLALNFSVFYYEILNSPDRACRLAKAAFDDAIAELDTLSEESYKDSTLIMQLLRDNLTLWTSDMQGDGEEQNKEALQDVEDENQ | – | binding result [4]: binds |
| YGRKKRRQRRRGSKSRVTQSNFAVG (A FAM-labelled form was used only to show cell penetration; also called TAT-VDAC1 Ser167; TV167) [TAT-VDAC1 fusion peptide S167 (TVS167)] | binds | – |
| YGRKKRRQRRRGSKSRVTQGNFAVG (also called TVS167G) [TAT-VDAC1 Gly167 (TVG167)] | binds | – |
| YGRKKRRQRRRGKLDLKTKSENGLE (also called TAT-VDAC1 Ser35) [TAT-VDAC1 fusion peptide S35 (TVS35)] | binds | – |
| YGRKKRRQRRRGKLDLKTKGENGLE (also called TVS35G) [TAT-VDAC1 Gly35 (TVG35)] | binds | – |
